Results on 9 molecules are retold here after PMC11266705, “Elf1 promotes transcription-coupled repair in yeast by using its C-terminal domain to bind TFIIH” (Nature Communications, 2024).

Where two headings read alike, the source gives them in different places.

Usually Kd stands for the constant that tells how readily two partners part at equilibrium.

Assay [1] addresses p62 PH domain (Homo sapiens) (UniProt P32780). As to conditions: cited from earlier work.
Assay [2] has the same target. As to conditions: cited from earlier work. This is another data set of the same source.
For assay [3] the target is unchanged. As to conditions: cited from earlier work. This is another data set of the same source.
For assay [4], the target named is p62 (Tfb1) PH domain (Saccharomyces cerevisiae) (UniProt P32776). The following applies: cited from earlier work.
In assay [5] the target is T1, PH domain (1–115) of TFIIH p62 subunit (S. cerevisiae, UniProt P32776 1-115).
T1 construct: also called PH domain of p62; p62 PH domain; source: E. coli Rosetta 2(DE3), purified (Glutathione Sepharose, released by PreScission protease cleavage)
T1 sequence (looked up): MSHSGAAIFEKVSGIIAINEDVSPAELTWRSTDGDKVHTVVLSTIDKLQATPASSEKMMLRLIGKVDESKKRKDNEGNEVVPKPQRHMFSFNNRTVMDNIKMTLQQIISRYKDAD
Nature of the assay: pull-down; GST beads with GST-tagged Elf1 proteins mixed with purified PH domain of p62; 23 °C, 1 h; washed twice in 20 mM HEPES pH 7.4, 5% glycerol; SDS-PAGE. As to conditions: both partners purified.

The target of assay [6] is T1, PH domain (1–115) of TFIIH p62 subunit. The assay can be described thus: BLI; Octet K2; GST-Elf1-CTD immobilised on GST-specific biosensors; PH domain of p62 at 30, 15, 7.5, 3.75 and 0 µM; 20 mM Tris-HCl pH 7.5, 5% glycerol, 1 mM DTT; association 2 min, dissociation 3 min. As to conditions: both partners purified. In general terms: Biolayer interferometry detects binding as a change in optical thickness at a sensor tip.

Sequence of p62 PH domain (Homo sapiens) (P32780 1-108): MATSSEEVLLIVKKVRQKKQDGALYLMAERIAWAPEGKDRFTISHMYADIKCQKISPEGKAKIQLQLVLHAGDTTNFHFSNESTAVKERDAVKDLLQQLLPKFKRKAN

With TFIIEα TIR (from UniProt P29083), the Kd in assay [1] was 0.045 µM.
As for UVSSA TIR (from UniProt Q2YD98), the dissociation constant Kd in assay [2] is 0.071 µM.
Consider DP1 TIR (from UniProt Q14186), for which the equilibrium dissociation constant (Kd) in assay [3] was 35.3 µM.
In the case of Rad4 TIR (from UniProt P14736), the Kd in assay [4] is 0.05 µM.

B1: GST-Elf1 residues 85–122 (domain or fragment, S. cerevisiae, UniProt P36053 85-122, looked up)
chain: GSDTDDGDEGSDSDYESDSEQDAKTQNDGEIDSDEEEV
notes: source: E. coli Rosetta 2(DE3), purified (Glutathione Sepharose, Superdex 200)
On to B1, for which, in assay [5], the binding result is “binds”.

B2: GST-Elf1 residues 85–113 (domain or fragment, S. cerevisiae, UniProt P36053 85-113, looked up)
chain: GSDTDDGDEGSDSDYESDSEQDAKTQNDG
notes: elongation factor-1 (Elf1), S. cerevisiae, residues 85-113 (truncated CTD); source: E. coli Rosetta 2(DE3), purified (Glutathione Sepharose, Superdex 200)
As to B2, the binding result in assay [5] was “binds”.

B3: GST-Elf1-CTD (residues 85–145) (domain or fragment, S. cerevisiae, UniProt P36053 85-145, looked up)
chain: GSDTDDGDEGSDSDYESDSEQDAKTQNDGEIDSDEEEVDSDEERIGQVKRGRGALVDSDDE
notes: also called WT CTD; Elf1 C-terminal domain; source: E. coli Rosetta 2(DE3), purified (Glutathione Sepharose, Superdex 200)
As to B3, the dissociation constant (Kd) in assay [6] amounted to 3.82 µM.

B4: GST-Elf1-CTD Y99A mutant (residues 85–145) (domain or fragment, S. cerevisiae, UniProt P36053 85-145, looked up)
chain: GSDTDDGDEGSDSDAESDSEQDAKTQNDGEIDSDEEEVDSDEERIGQVKRGRGALVDSDDE
notes: also called Y99A GST-Elf1-CTD; Y99A mutant CTD; source: E. coli Rosetta 2(DE3), purified (Glutathione Sepharose, Superdex 200)
In the case of B4, binding in assay [6] was characterised by a dissociation constant (Kd) of 7.32 µM.

B5: GST-Elf1-CTD I115A (residues 85–145) (domain or fragment, S. cerevisiae, UniProt P36053 85-145, looked up)
chain: GSDTDDGDEGSDSDYESDSEQDAKTQNDGEADSDEEEVDSDEERIGQVKRGRGALVDSDDE
notes: also called I115A control; source: E. coli Rosetta 2(DE3), purified (Glutathione Sepharose, Superdex 200)
B5: in assay [5], the binding result is “binds”.
